Test results as given in patent US20240279618A1, “RECEPTOR TYROSINE KINASE AGONIST, COMPOSITION FOR CELL CULTURE MEDIUM, AND […] MAINTENANCE COMPOSITION” (SEKISUI CHEMICAL CO., LTD., priority 2021, published 2024).

B1: #1-L4-#1: dimer of VHH #1 with linker L4 (GSEGKSSGSGSESKST), SEQ ID NO: 23 (protein)
VHH: QLQLVESGGGSVQAGGSLRLSCAASRSLSRFNVWTWYRQAPVKQRELVASITKSGDTNYAESVKGRFIISRDDDKNTVYLQMNNLKSEDTGIYYCAGSYYSGSYLYPSPGGFSVWGQGTQVTVSSGSEGKSSGSGSESKSTQLQLVESGGGSVQAGGSLRLSCAASRSLSRFNVWTWYRQAPVKQRELVASITKSGDTNYAESVKGRFIISRDDDKNTVYLQMNNLKSEDTGIYYCAGSYYSGSYLYPSPGGFSVWGQGTQVTVSS
modifications: #1-L4-#1
B2: VHH Clone #2: alpaca-derived VHH single-domain antibody (monomer) binding FGFR1, amino acid sequence SEQ ID NO: 18 (protein)
VHH: QVQLVESGGGLVQAGGSLRLSCAVPGSIFRFNTMGWYRQPPGKQRELVAQMSRGGITKYGDSVKGRFTITRDNAKNTVHLQMNSLKPEDTAVYYCAGSYYSGSYYYPSPQGFSVWGQGTQVTVSP
modifications: VHH_Clone_#2
B3: VHH Clone #1: alpaca-derived VHH single-domain antibody (monomer) binding FGFR1, amino acid sequence SEQ ID NO: 17 (protein)
VHH: QLQLVESGGGSVQAGGSLRLSCAASRSLSRFNVWTWYRQAPVKQRELVASITKSGDTNYAESVKGRFIISRDDDKNTVYLQMNNLKSEDTGIYYCAGSYYSGSYLYPSPGGFSVWGQGTQVTVSS
modifications: VHH_Clone_#1

Assays:
iPS cells (253G1 cells) [1] = assay: iPS cell culture: evaluation of undifferentiated state (immunostaining); type: cell-based, human; details: second passage, Day 6 (Culture day 20)
Method: The cells were cultured in the medium of each group for 3 to 5 weeks, and the following operations were performed on Days 4 to 7 of the passage. After washing the cells with D-PBS, 1 mL/well of 4% formaldehyde was added. After being left to stand for 30 minutes or longer, the solution was removed and washing was performed with D-PBS. 0.1% Triton X-100/D-PBS was added thereto and the mixture was left to stand at room temperature for 3 to 5 minutes. After washing with D-PBS, 1% of BSA/D-PBS was added thereto and the mixture was left to stand for 30 minutes.
An antibody for undifferentiation marker staining, such as OCT4 (Abcam, ab19857) or SSEA4 (Abcam, ab16287), was diluted in 1% BSA/D-PBS at an appropriate ratio, added to a well, which was left to stand for 30 to 60 minutes. After washing with D-PBS, secondary antibodies (a Goat anti-Rabbit IgG antibody (Abcam, ab 150115) and a Goat anti-Mouse IgG antibody (Abcam, ab150077)) were diluted in 1% BSA/D-PBS at an appropriate ratio and added to the wells, which were left to stand with light shielded with an aluminum foil for 30 to 60 minutes. DAPI (DOJINDO LABORATORIES, 340-07971) was diluted with 1% BSA/D-PBS to a concentration of 1 to 10 μg/mL, and added to each well, which was left to stand for 5 minutes. […] The image was acquired by observing the sample under a fluorescence microscope.

iPS cells (253G1 cells) [2] = assay: iPS cell culture: evaluation of preservation stability; type: cell-based, human; details: stock preserved 3 or 4 weeks at 4° C. versus −80° C.; 20 ng/mL
Method: Basic FGF and VHH stocks were collected in a 1.5 mL microtube 3 or 4 weeks before culturing, and preserved in a refrigerator (4° C.). Hereinafter, all operations were the same as those in the cell growth evaluation procedure, except that for basic FGF and VHH, a medium was prepared so that the both were preserved at 20 ng/mL using both refrigeration (4° C.)- and freeze (−80° C.)-preservation conditions.

[3] = test system: phospho-p44/42 MAPK (Erk½); assay: Agonist activity by In Cell ELISA in NIH3T3 cells; type: cell-based, mouse; details: 30 minutes stimulation, final dilution ratio 100-fold, relative to no stimulus = 1
Text: In order to verify the agonist activity of the purified VHH (monomer), the expression level of phospho-p44/42 MAPK (Erk½) was […] by using an In Cell ELISA method. VHH (monomer) was allowed to act on the cells such that the final dilution ratio was 100-fold. In addition, as a positive control, FGF2 (fibroblast growth factor (basic) (FGF-basic/bFGF/FGF2), human, recombinant, animal-derived substance-free (154aa): product code 068-05384; manufactured by Fujifilm Wako Pure Chemical Corporation: final concentration: 100 ng/mL) was used. The experimental procedure was as described below.
A D-MEM (D6429, manufactured by Sigma-Aldrich Co., LLC) medium including a 10% fetal bovine serum (S0400, manufactured by BWT) and 1% Penicillin-Streptomycin Mixed Solution, 26253-84, manufactured by Nacalai Tesque, Inc.) was prepared, NIH3T3 (CRL1658, ATCC) was suspended therein, and the suspension was seeded on a 96-well plate for cell culture at 1× 10^4 cells/well and cultured overnight at 37° C. with light shielded in a 5% CO2 incubator. The medium in each well was removed and the inside of each well was washed with a serum-free medium. […]

| Molecule | undifferentiation markers OCT4 and SSEA4 (iPS cells (253G1 cells) [1]) | growth performance of iPS cells with additive preserved at 4° C. (iPS cells (253G1 cells) [2]) | agonist activity (expression level of phospho-p44/42 MAPK (Erk½)) [3] |
| --- | --- | --- | --- |
| FGF2: fibroblast growth factor (basic), human, recombinant (154aa), positive control; SEQ ID NO: 58 [reference compound] | positive | growth performance was significantly deteriorated |  |
| B1 | positive | exhibited growth performance similar to that of VHH preserved at −80 °C |  |
| B2 |  |  | none of the VHHs (monomers) have an agonist activity |
| B3 |  |  | none of the VHHs (monomers) have an agonist activity |
